The record followed here is patent US20250295776A1, “CLEAVAGE RESISTANT CD16 CONSTRUCTS AND USES THEREOF” (Celularity Inc., priority 2022, published 2025).

Some results are limits rather than exact numbers.

Assay in all cases: cell-based or functional assay
The target in assay [1] is Construct #1 (176 V; 197 Glycine (G)), without Myc tag (human) (UniProt P08637).
The target of assay [2] is CD16VS (construct #5: 176 V; SCRAMBLED original sequence), without Myc tag (human) (UniProt P08637).
In assay [3] the target is high affinity (158 Val) and proteinase cleavage resistant (197Pro) CD16 variant (CD16VP) (human) (UniProt P08637).
For assay [4], the target named is endogenous CD16 on non-transduced (NT) placental NK cells (human) (UniProt P08637).
Assay [5] concerns the target Construct #10 (176 V (also referred to as 158 V); 197 Serine (S)), without Myc tag (human) (UniProt P08637).
For assay [6], the target named is HER2 (human epidermal growth factor 2) on HER2 overexpressing tumor cell lines (human) (UniProt P04626).

Sequence of Avelumab (anti-PD-L1 antibody) (HC): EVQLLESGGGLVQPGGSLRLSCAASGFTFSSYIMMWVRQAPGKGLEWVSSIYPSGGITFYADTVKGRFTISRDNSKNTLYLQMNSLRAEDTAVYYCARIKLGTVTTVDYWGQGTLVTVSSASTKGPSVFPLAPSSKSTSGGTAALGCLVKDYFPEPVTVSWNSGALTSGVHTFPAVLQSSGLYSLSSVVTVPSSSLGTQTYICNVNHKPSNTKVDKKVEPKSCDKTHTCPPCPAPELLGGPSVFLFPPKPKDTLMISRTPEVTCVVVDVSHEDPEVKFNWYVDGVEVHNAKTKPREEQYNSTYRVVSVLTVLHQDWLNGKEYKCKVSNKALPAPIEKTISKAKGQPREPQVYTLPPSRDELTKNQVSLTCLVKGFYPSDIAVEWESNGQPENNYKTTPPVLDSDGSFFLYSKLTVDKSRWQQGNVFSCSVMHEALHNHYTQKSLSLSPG
Sequence of Avelumab (anti-PD-L1 antibody) (LC): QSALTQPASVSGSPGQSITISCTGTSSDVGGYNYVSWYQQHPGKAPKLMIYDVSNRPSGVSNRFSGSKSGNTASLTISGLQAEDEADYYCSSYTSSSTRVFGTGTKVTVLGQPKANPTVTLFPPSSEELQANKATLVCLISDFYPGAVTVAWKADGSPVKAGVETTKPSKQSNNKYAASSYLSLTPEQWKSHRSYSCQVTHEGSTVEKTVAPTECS

Regarding “metalloprotease ADAM17 (from UniProt P78536 215-824) (enzyme)”, the CD16 shedding percentage post 2 h PMAi stimulation, transduced CYNK cells (n=6 donors) in assay [1] turned out to be 9.4%; in assay [2], 0.6%; in assay [3], 4.3%; in assay [5] it was 1.8%. This substance yielded a CD16 shedding after PMA/ionomycin activation, flow cytometry, PNK-CD16VP cells in assay [3] below 11%. In assay [4], the CD16 shedding after 2 h PMAi, control sample was 60%. This substance also yielded a CD16 shedding percentage post 2 h PMAi stimulation, NT CYNK cells in assay [4] of 74.7%.

On to “Ultra-LEAF purified human IgG1 isotype control recombinant antibody”, for which, in assay [6], the lysis of NCI-N87 cells by CYNK-101 cells (n=7 donors) in the presence of IgG control, 24 h, E:T 0.6:1, xCELLigence worked out at 7.5% and the lysis of OE19 cells by CYNK-101 cells (n=7 donors) in the presence of IgG control, 24 h, E:T 0.6:1, xCELLigence was 14.7%.

In the case of Avelumab (anti-PD-L1 antibody), in assay [2], the cytolysis of 5637, T-24, RT-112 and NCI-H1975 tumor cell lines by PT-CD16VS cells with Avelumab, 24 hours, 5:1 E:T ratio turned out to be 100%; the cytolysis of MDA-MB-231 by PT-CD16VS cells with Avelumab, 12 hours, 5:1 E:T ratio turned out to be 70%.

Consider Daratumumab (anti-CD38) (antibody), for which, in assay [3], the cytotoxicity (ADCC) of PNK-CD16VP cells against Daratumumab opsonized Daudi cells, E:T 10:1 (n=5) is 47%; the cytotoxicity (ADCC) of PNK-CD16VP cells against Daratumumab opsonized HS-Sultan cells, E:T 10:1 (n=3) is 30%; the cytotoxicity (ADCC) of PNK-CD16VP cells against Daratumumab opsonized Sudh16 cells, E:T 10:1 (n=3) was 30%. In assay [4], this substance yielded a cytotoxicity (ADCC) of NT cells against Daratumumab opsonized Daudi cells, E:T 10:1 (n=5) of 25%; a cytotoxicity (ADCC) of NT cells against Daratumumab opsonized HS-Sultan cells, E:T 10:1 (n=3) of 21%; a cytotoxicity (ADCC) of NT cells against Daratumumab opsonized Sudh16 cells, E:T 10:1 (n=3) of 16%.
